Drawing on publication PMC5465077, this text covers Kd for one substance.

The test concerns the target Her2 on SKBR3 cells (human (endogenous in SKBR3)) (UniProt P04626). As to the kind of experiment: flow cytometry on cells; 200,000 SKBR3 cells per sample incubated on ice for 60 min with serial dilutions of antibody or ADC in FACS buffer (DPBS, 1% BSA); detected with Alexa 647 goat anti-human IgG; mean fluorescence intensities fitted with a one-site specific binding equation. For orientation: In flow cytometry, cells or beads pass a laser one at a time.

In the case of “Trastuzumab^CF MMAF (AB4285) LC-S7 (antibody)”, the Kd (in general, the concentration at which binding is half-saturated) was 7.6 nM.
